Test results from paper PMC6702468.
Changes are numbered by the printed parent chain. In names and notes the source's numbering stands.

B1: NsLsi1 (NsNIP2-1) (Nicotiana sylvestris) (protein)
chain: MESERGNSTENKKPNELVSVENPKSNLSFRYILIFFQEHYPPGFLKKVIAEVIATYLLVFVTCGAAAISASDEHKVSRLGASVAGGLIVTVMIYAVGHISGAHMNPAVTFAFAAVRHFPWRQVPPYAAAQLTGATSAAFTLRVLLHPIKHVGTTTPSGSDIQALIMEIVVTFSMMFITSAVATDTKAIGELAGMAVGSAVCITSILAGPVSGGSMNPARTIGPAMASNDYRGIWVYIIGPVCGTLLGAWSYNFIRVTDKPVHAIAPGQSFSFKLRRMKSNDEEQGV
B2: NsLsi1 (NsNIP2-1) (Nicotiana sylvestris; P125F) (protein)
chain: B1 chain with P125F

Substrate: O[Si](O)(O)O
Assay: cells, lysate or membranes
Settings: unit not printed beside Km, taken from [Si]ext in mM

Protein | Km (3 hr exposure in modified Barth's solution pH 7.4, room temperature, H2O-injected background subtracted, transport, R2 = 0.90, pH 7.4) | Km (otherwise as WT, paper states a linear equation fits best (R2 = 0.99) and Km lies far above the tested range (up to 2 mM))
B1 | 0.94 ± 0.30 mM | 
B2 |  | 12.83 ± 8.49 mM
